Assay results published in US20120121587A1 (Chugai, published 2012).

Biological target: T1, Human recombinant AXL-FND1 (GST-FND1), from pET-41b(+) (human, UniProt P30530 225-331)
T1 construct: Expressed in E. coli, purified on Glutathione Sepharose; analyte in all Biacore measurements; GST put first by the usual layout of pET-41; not shown: GST-tag of vector pET-41b(+) (Novagen)
T1 sequence (looked up): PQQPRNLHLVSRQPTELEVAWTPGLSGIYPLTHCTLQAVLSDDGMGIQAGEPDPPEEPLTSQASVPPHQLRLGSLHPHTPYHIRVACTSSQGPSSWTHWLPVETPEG
Test: SPR (Biacore T100): antibody captured on Protein A, GST-FND1 as analyte
Summary of the method: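 Antibodies (1 μg/mL) were captured for 2 min on a Protein A CM5 chip. GST-FND1 (0.5 and 2.0 μg/mL) in HBS-EP+ was flowed at 30 μL/min with 2 min association and 2 min dissociation at 25° C. ka and kd were fitted from sensorgrams and Kd was calculated from them.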

Binder | Kd [nM]
H36/L37 (antibody, human IgG1, kappa) heavy: not shown light: DVVMTQSPLSLPVTLGRPASISCRSSRNIVHTNGNTYLEWYQQKPGKAPKLLIYKVSNRFSGVPDRFSGSGSGTDFTLKISRVEAEDVGVYYCFQGSHIPFTFGRGTKLEIKRTVAAPSVFIFPPSDEQLKSGTASVVCLLNNFYPREAKVQWKVDNALQSGNSQESVTEQDSKDSTYSLSSTLTLSKADYEKHKVYACEVTHQGLSSPVTKSFNRGEC | 2.2
H37/L0 (antibody, human IgG1, kappa, V domains shown) VH: QVTLKESGPVLVKPTETLTLTCTVSGFSLSSFGVDWVRQAPGKGLEWMGVIWGGGSTNYNRALKSRLTISKDNSKSQVVLTMTNMDPVDTATYYCAGEGSKYGAWFAYWGQGTLVTVSS VL: DVVMTQSPLSLPVTLGQPASISCRSSQNIVHTNGNTYLEWYQQKPGKAPELLIYKVSNRFSGVPDRFSGSGSGTDFTLKISRVEAEDVGVYYCFQGSHIPFTFGQGTKLEIKR | 2.92
H46/L31 (antibody, human IgG1, kappa) heavy: not shown light: DVVMTQSPLSLPVTLGQPASISCRSSRNIVHTNGNTYLEWYQQKPGKAPKLLIYKVSNRFSGVPDRFSGSGSGTDFTLKISRVEAEDVGVYYCFQGSHIPFTFGQGTKLEIKRTVAAPSVFIFPPSDEQLKSGTASVVCLLNNFYPREAKVQWKVDNALQSGNSQESVTEQDSKDSTYSLSSTLTLSKADYEKHKVYACEVTHQGLSSPVTKSFNRGEC | 1.9
H46/L35 (antibody, human IgG1, kappa) heavy: not shown light: DVVMTQSPLSLPVTLGQPASISCRSSRNIVHTNGNTYLEWYQQKPGKAPKLLIYKVSNRFSGVPDRFSGSGSGTDFTLKISRVEAEDVGVYYCFQGSHIPFTFGRGTKLEIKRTVAAPSVFIFPPSDEQLKSGTASVVCLLNNFYPREAKVQWKVDNALQSGNSQESVTEQDSKDSTYSLSSTLTLSKADYEKHKVYACEVTHQGLSSPVTKSFNRGEC | 2.04
H46/L27 (antibody, human IgG1, kappa) heavy: not shown light: DVVMTQSPLSLPVTLGQPASISCRSSRNIVHTNGNTYLEWYQQKPGKAPELLIYKVSNRFSGVPDRFSGSGSGTDFTLKISRVEAEDVGVYYCFQGSHIPFTFGQGTKLEIKRTVAAPSVFIFPPSDEQLKSGTASVVCLLNNFYPREAKVQWKVDNALQSGNSQESVTEQDSKDSTYSLSSTLTLSKADYEKHKVYACEVTHQGLSSPVTKSFNRGEC | 1.9
H46/L0 (antibody, human IgG1, kappa) heavy: not shown light: DVVMTQSPLSLPVTLGQPASISCRSSQNIVHTNGNTYLEWYQQKPGKAPELLIYKVSNRFSGVPDRFSGSGSGTDFTLKISRVEAEDVGVYYCFQGSHIPFTFGQGTKLEIKRTVAAPSVFIFPPSDEQLKSGTASVVCLLNNFYPREAKVQWKVDNALQSGNSQESVTEQDSKDSTYSLSSTLTLSKADYEKHKVYACEVTHQGLSSPVTKSFNRGEC | 1.87
H46/L37 (antibody, human IgG1, kappa) heavy: not shown light: DVVMTQSPLSLPVTLGRPASISCRSSRNIVHTNGNTYLEWYQQKPGKAPKLLIYKVSNRFSGVPDRFSGSGSGTDFTLKISRVEAEDVGVYYCFQGSHIPFTFGRGTKLEIKRTVAAPSVFIFPPSDEQLKSGTASVVCLLNNFYPREAKVQWKVDNALQSGNSQESVTEQDSKDSTYSLSSTLTLSKADYEKHKVYACEVTHQGLSSPVTKSFNRGEC | 2.3
H47/L1 (antibody, human IgG1, kappa) heavy: not shown light: DVVMTQSPLSLPVTLGQPASISCQSSQNIVHTNGNTYLEWYQQKPGKAPELLIYKVSNRFSGVPDRFSGSGSGTDFTLKISRVEAEDVGVYYCFQGSHIPFTFGQGTKLEIKRTVAAPSVFIFPPSDEQLKSGTASVVCLLNNFYPREAKVQWKVDNALQSGNSQESVTEQDSKDSTYSLSSTLTLSKADYEKHKVYACEVTHQGLSSPVTKSFNRGEC | 1.89
H46/L1 (antibody, human IgG1, kappa) heavy: not shown light: DVVMTQSPLSLPVTLGQPASISCQSSQNIVHTNGNTYLEWYQQKPGKAPELLIYKVSNRFSGVPDRFSGSGSGTDFTLKISRVEAEDVGVYYCFQGSHIPFTFGQGTKLEIKRTVAAPSVFIFPPSDEQLKSGTASVVCLLNNFYPREAKVQWKVDNALQSGNSQESVTEQDSKDSTYSLSSTLTLSKADYEKHKVYACEVTHQGLSSPVTKSFNRGEC | 1.84
H40/L0 (antibody, human IgG1, kappa, V domains shown) VH: QVTLKESGPVLVKPTETLTLTCTVSGFSLSKFGVDWVRQARGQRLEWMGVIWGGGSTNYNSALKSRLTISKDNSKSQVVLTMTNMDPVDTATYYCAGEGSKYGAWFAYWGQGTLVTVSS VL: DVVMTQSPLSLPVTLGQPASISCRSSQNIVHTNGNTYLEWYQQKPGKAPELLIYKVSNRFSGVPDRFSGSGSGTDFTLKISRVEAEDVGVYYCFQGSHIPFTFGQGTKLEIKR | 3.51
H46/L11 (antibody, human IgG1, kappa) heavy: not shown light: DVVMTQSPLSLPVTLGQPASISCQSSQNIVHTNGNTYLEWYQQKPGKAPELLIYKVSNRFSGVPDRFSGSGSGTDFTLKISRVEAEDVGVYYCFQGSHIPFTFGQGTKVEIERTVAAPSVFIFPPSDEQLKSGTASVVCLLNNFYPREAKVQWKVDNALQSGNSQESVTEQDSKDSTYSLSSTLTLSKADYEKHKVYACEVTHQGLSSPVTKSFNRGEC | 1.8
H39/L0 (antibody, human IgG1, kappa) heavy: not shown light: DVVMTQSPLSLPVTLGQPASISCRSSQNIVHTNGNTYLEWYQQKPGKAPELLIYKVSNRFSGVPDRFSGSGSGTDFTLKISRVEAEDVGVYYCFQGSHIPFTFGQGTKLEIKRTVAAPSVFIFPPSDEQLKSGTASVVCLLNNFYPREAKVQWKVDNALQSGNSQESVTEQDSKDSTYSLSSTLTLSKADYEKHKVYACEVTHQGLSSPVTKSFNRGEC | 3.43
H38/L0 (antibody, human IgG1, kappa, V domains shown) VH: QVTLKESGPVLVKPTETLTLTCTVSGFSLSSFGVDWVRQAPGKGLEWMGVIWGGGSTNYNKALKSRLTISKDNSKSQVVLTMTNMDPVDTATYYCAGEGSKYGAWFAYWGQGTLVTVSS VL: DVVMTQSPLSLPVTLGQPASISCRSSQNIVHTNGNTYLEWYQQKPGKAPELLIYKVSNRFSGVPDRFSGSGSGTDFTLKISRVEAEDVGVYYCFQGSHIPFTFGQGTKLEIKR | 2.92
H47/L11 (antibody, human IgG1, kappa) heavy: not shown light: DVVMTQSPLSLPVTLGQPASISCQSSQNIVHTNGNTYLEWYQQKPGKAPELLIYKVSNRFSGVPDRFSGSGSGTDFTLKISRVEAEDVGVYYCFQGSHIPFTFGQGTKVEIERTVAAPSVFIFPPSDEQLKSGTASVVCLLNNFYPREAKVQWKVDNALQSGNSQESVTEQDSKDSTYSLSSTLTLSKADYEKHKVYACEVTHQGLSSPVTKSFNRGEC | 1.83
H46/L28 (antibody, human IgG1, kappa) heavy: not shown light: DVVMTQSPLSLPVTLGQPASISCRSSQNIVHTNGNTYLEWYQQKPGKAPKLLIYKVSNRFSGVPDRFSGSGSGTDFTLKISRVEAEDVGVYYCFQGSHIPFTFGQGTKLEIKRTVAAPSVFIFPPSDEQLKSGTASVVCLLNNFYPREAKVQWKVDNALQSGNSQESVTEQDSKDSTYSLSSTLTLSKADYEKHKVYACEVTHQGLSSPVTKSFNRGEC | 1.86
H46/L34 (antibody, human IgG1, kappa) heavy: not shown light: DVVMTQSPLSLPVTLGRPASISCRSSRNIVHTNGNTYLEWYQQKPGKAPKLLIYKVSNRFSGVPDRFSGSGSGTDFTLKISRVEAEDVGVYYCFQGSHIPFTFGQGTKLEIKRTVAAPSVFIFPPSDEQLKSGTASVVCLLNNFYPREAKVQWKVDNALQSGNSQESVTEQDSKDSTYSLSSTLTLSKADYEKHKVYACEVTHQGLSSPVTKSFNRGEC | 2.22
H41/L0 (antibody, human IgG1, kappa, V domains shown) VH: QVTLKESGPVLVKPTETLTLTCTVSGFSLSRFGVDWVRQARGQRLEWMGVIWGGGSTNYNSALKSRLTISKDNSKSQVVLTMTNMDPVDTATYYCAGEGSKYGAWFAYWGQGTLVTVSS VL: DVVMTQSPLSLPVTLGQPASISCRSSQNIVHTNGNTYLEWYQQKPGKAPELLIYKVSNRFSGVPDRFSGSGSGTDFTLKISRVEAEDVGVYYCFQGSHIPFTFGQGTKLEIKR | 2.35
H47/L10 (antibody, human IgG1, kappa) heavy: not shown light: DVVMTQSPLSLPVTLGQPASISCRSSQNIVHTNGNTYLEWYQQKPGKAPELLIYKVSNRFSGVPDRFSGSGSGTDFTLKISRVEAEDVGVYYCFQGSHIPFTFGQGTKVEIERTVAAPSVFIFPPSDEQLKSGTASVVCLLNNFYPREAKVQWKVDNALQSGNSQESVTEQDSKDSTYSLSSTLTLSKADYEKHKVYACEVTHQGLSSPVTKSFNRGEC | 1.89
H47/L0 (antibody, human IgG1, kappa) heavy: not shown light: DVVMTQSPLSLPVTLGQPASISCRSSQNIVHTNGNTYLEWYQQKPGKAPELLIYKVSNRFSGVPDRFSGSGSGTDFTLKISRVEAEDVGVYYCFQGSHIPFTFGQGTKLEIKRTVAAPSVFIFPPSDEQLKSGTASVVCLLNNFYPREAKVQWKVDNALQSGNSQESVTEQDSKDSTYSLSSTLTLSKADYEKHKVYACEVTHQGLSSPVTKSFNRGEC | 1.84
H46/L10 (antibody, human IgG1, kappa) heavy: not shown light: DVVMTQSPLSLPVTLGQPASISCRSSQNIVHTNGNTYLEWYQQKPGKAPELLIYKVSNRFSGVPDRFSGSGSGTDFTLKISRVEAEDVGVYYCFQGSHIPFTFGQGTKVEIERTVAAPSVFIFPPSDEQLKSGTASVVCLLNNFYPREAKVQWKVDNALQSGNSQESVTEQDSKDSTYSLSSTLTLSKADYEKHKVYACEVTHQGLSSPVTKSFNRGEC | 1.88
H47/L27 (antibody, human IgG1, kappa) heavy: not shown light: DVVMTQSPLSLPVTLGQPASISCRSSRNIVHTNGNTYLEWYQQKPGKAPELLIYKVSNRFSGVPDRFSGSGSGTDFTLKISRVEAEDVGVYYCFQGSHIPFTFGQGTKLEIKRTVAAPSVFIFPPSDEQLKSGTASVVCLLNNFYPREAKVQWKVDNALQSGNSQESVTEQDSKDSTYSLSSTLTLSKADYEKHKVYACEVTHQGLSSPVTKSFNRGEC | 1.6
